# Target: humanized anti-human IL-6 receptor monoclonal IgG antibody MRA (tocilizumab), untreated
# Experiment: dot blot of untreated MRA on nitrocellulose (1.5 to 100 ng per spot), biotinylated peptide with HRP-conjugated streptavidin
substance,measurement,value
Fc-III peptide,detection limit,6 ng/spot
